This assay concerns the target Flt1/VEGFR1 (human) (UniProt P17948). The experiment in a line: cell-based or functional assay.
Sequence of UniProt P17948 (P17948 27-1338): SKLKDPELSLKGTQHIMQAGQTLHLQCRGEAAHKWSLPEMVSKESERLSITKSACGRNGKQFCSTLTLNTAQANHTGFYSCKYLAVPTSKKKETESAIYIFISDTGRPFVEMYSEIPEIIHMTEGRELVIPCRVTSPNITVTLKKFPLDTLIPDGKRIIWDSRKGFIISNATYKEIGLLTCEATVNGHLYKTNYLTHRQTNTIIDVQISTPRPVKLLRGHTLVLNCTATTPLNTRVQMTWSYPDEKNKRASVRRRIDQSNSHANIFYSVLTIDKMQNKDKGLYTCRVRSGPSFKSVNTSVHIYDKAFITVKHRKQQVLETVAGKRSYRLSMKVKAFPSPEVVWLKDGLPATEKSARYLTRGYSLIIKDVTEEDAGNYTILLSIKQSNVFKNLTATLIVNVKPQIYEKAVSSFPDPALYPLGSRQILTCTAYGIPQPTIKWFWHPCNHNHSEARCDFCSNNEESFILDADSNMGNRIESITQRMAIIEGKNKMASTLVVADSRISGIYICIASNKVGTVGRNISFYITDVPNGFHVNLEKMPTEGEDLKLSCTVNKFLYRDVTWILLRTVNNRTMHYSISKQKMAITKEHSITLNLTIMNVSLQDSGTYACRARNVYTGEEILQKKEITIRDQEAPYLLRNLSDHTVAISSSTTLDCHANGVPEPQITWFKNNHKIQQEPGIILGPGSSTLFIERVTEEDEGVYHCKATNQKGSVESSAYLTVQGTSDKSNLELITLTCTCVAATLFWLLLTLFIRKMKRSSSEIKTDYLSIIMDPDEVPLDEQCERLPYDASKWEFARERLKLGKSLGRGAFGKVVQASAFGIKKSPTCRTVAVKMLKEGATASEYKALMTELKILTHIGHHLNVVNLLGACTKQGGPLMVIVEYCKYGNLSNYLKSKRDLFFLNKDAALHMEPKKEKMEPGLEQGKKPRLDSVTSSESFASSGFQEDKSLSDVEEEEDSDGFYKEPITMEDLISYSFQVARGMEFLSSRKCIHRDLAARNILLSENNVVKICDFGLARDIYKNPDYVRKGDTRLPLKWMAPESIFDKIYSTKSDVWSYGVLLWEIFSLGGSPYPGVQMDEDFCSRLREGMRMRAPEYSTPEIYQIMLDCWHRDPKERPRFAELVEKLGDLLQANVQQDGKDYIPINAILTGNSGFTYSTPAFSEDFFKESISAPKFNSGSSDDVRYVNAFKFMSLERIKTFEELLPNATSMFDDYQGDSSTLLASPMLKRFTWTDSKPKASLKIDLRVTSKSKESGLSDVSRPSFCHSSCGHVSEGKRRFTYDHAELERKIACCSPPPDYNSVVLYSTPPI

placental growth factor (ligand) had an HUVEC buds containing multiple filopodia of 250%.
